B1: TPR t1 (parent)
chain: GACCAAUCUGCCCUCAGAGCUCGAGAACAUCUUCGGAUGCAGAGGAGGCAGGCUUCGGUGGCGCGAUAGCGCCAACGUCCUCAACCUCCAAUGCAUCCCACCACAUGAUGAUGCCUGAAGAGCCUUGGUUUUUUG

Variants of: B1
Test: polymerase ribozyme fitness, log enrichment relative to wild type (log ratio); higher = more active; in vitro selection for triplet polymerase activity
Procedure, shortened: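 The heterodimeric triplet polymerase ribozyme's subunits were each mutagenized into PCR-built libraries and transcribed. Every library was selected once, in triplicate, by annealing with a biotinylated primer, the partner subunit and triplets, incubating frozen at −7 °C, gel-excising extended constructs, capturing on streptavidin beads and running RT-PCR. Input and output libraries were Illumina-sequenced, with genotypes kept only at ≥10 input reads and ≥1 read per output. Fitness, from inverse-variance-weighted replicate averages, is the base-2 logarithm of genotype enrichment over wild-type enrichment.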

Variant | polymerase ribozyme fitness (log ratio)
A2U G58C C72G C88U | -4.39
A2U G60A A91G C124U | -3.61
A2U G61A G127C | -1.88
A2U G71U A74C | -4.54
A2U G93C | -3.65
A2U G110U | -2.47
A2U G113C | -3.73
A2U G113U | -4.15
A2U G120C G135A | 0.456
A2U U9G G47U C88U G113A | -4.58
A2U U14G U106G G120A C124G | -3.26
A2U U32C G48A C49G C64U | -3.23
A2U U54C C115A | -2.65
C3A A5C G48A C101A G122A | -1.86
C3A A18C U112C U130C | -0.927
C3A A29U | -3.36
C3A A46U A50U G57A | -4.95
C3A A66C | -2.64
C3A A66U G69U | -1.08
C3A C4G G10A G61U A74C C123G | -4.94
C3A C4U C72U C123G | -0.302

Variant | polymerase ribozyme fitness (log ratio)
C3A C8A C12A G61A | -1.5
C3A C8A C12G G60A U92A C124A | -2.58
C3A C8A C70G | -3.71
C3A C8G A37G G93A | -0.343
C3A C8G C12A C13U C20G G35C C70G A118G C124A U132A | -6.19
C3A C8G C88U A90C G110A U132A | -2.77
C3A C11G G48U C114A | -2.07
C3A C11U C49G C53A G60A C101A | -3.22
C3A C12A G58A A83C | -2.19
C3A C13A C20A A66G G117A | -5.73
C3A C13G C89U G128C | -3.62
C3A C13U C62U G113U | -4.41
C3A C15U C40U C88U | -3.42
C3A C20A C49G A50C G61U | -5.32
C3A C28U G63C | -3.87
C3A C49A A75U C123U | 0.0976
C3A C53G | -1.72
C3A C53G C64U A118G C123U | -1.11
C3A C53U U55A C73A G117A | -4.29
C3A C56A C89A C115U | -3.79
C3A C56G G61A U81A U131C | -4.05

Variant | polymerase ribozyme fitness (log ratio)
C3A C64U G71A G110U U129G | -6.8
C3A C72A G110U | -3.62
C3A C79U C124G | 0.849
C3A C85U A90U C114U G127C | -2.77
C3A C102A U106C G120U C124U | -2.57
C3A C104U | -0.516
C3A C114U | -3.65
C3A C124A | -0.333
C3A G10U U38A C49U C82U G128A U131G | -1.74
C3A G25U G58C U59G C97U C123A G135U | -6.86
C3A G36A C64U C123G | -0.723
C3A G36C C70G G120A A121U | -3.08
C3A G39C C72U U92A A111G | -5.51
C3A G42A G57C G107U C114U G128U U130C | -4.37
C3A G42U G48U G52U C64U C86U G113U U133G | -7.08
C3A G44C C53U C123A | -1.67
C3A G44U G63C | -3.25
C3A G45A | -2.42
C3A G45U G57U C82U C104A C123A | -4.01
C3A G48A A84G C114U | -3.87
C3A G48A C72U A84G | -1.58

Variant | polymerase ribozyme fitness (log ratio)
C3A G60A U112C | 0.261
C3A G71C C114G | -4.21
C3A G120A U130C | 0.403
C3A U9G G17C U54G G69U A105C G117A | -5.55
C3A U14G C62A A119U G120A | -2.14
C3A U21A G71U | -2.65
C3A U32A C64G C99A | -7.73
C3A U33A G48U A121C C124G | -4.93
C3A U38A A121C U129A | -0.064
C3A U78A | -1.96
C3A U78C | -0.717
C3G A6C C49A C53U G61C C97U C101U | -3.42
C3G A18C C22A A26G G60U A95U G120A | -4.84
C3G A24G | -3.73
C3G A37U C62A A95U G120C | -3.27
C3G A43U | -3.88
C3G A46U C72A G113C | -3.77
C3G A50C C73A A95U | -2.64
C3G A95G | -2.02
C3G C4U A83U G122U C123U | -0.882

Reference: the RNAGym collection of RNA variant scans (doi:10.1073/pnas.2313332121)
